Measured values reported in patent US12649776B2, “Scaffold proteins and therapeutic nanoconjugates based on nidogen” (UNIVERSITAT AUTÒNOMA DE BARCELONA, priority 2019, dated 2026).
Positions count from the first letter of the chain named.

B1: T22-NIDOmut2-H6: Modular protein: N-terminal T22 CXCR4 ligand, linker, mutated human nidogen-1 G2 domain (NIDOmut2), C-terminal poly-histidine; SEQ ID NO: 61 (protein)
chain: RRWCYRKCYKGYCYRKCRGGSSRSSSPQRVNGKVKGRIFVGSSQVPIVFENTDLASYVVMNHGNSYTAISTIPETVGYSLLPLAPVGGIIGWMFAVEQDGFKNGFSITGGEFTRQAEVTFVGHPGNLVIKQRFSGIDEHGHLTIDTELEGRVPQIPFGSSVHIEPYTELYHYSTSVITSSSTREYTVTEPERDGASPSRIYTYQWRQTITFQECVHDDSRPALPSTQQLSVDSVSVLYNQEEKILAYALSNSIGPVREGSPDAKHHHHHH
B2: T22-NIDOmut3-H6: T22-linker-NIDOmut3-H6 fusion protein, SEQ ID NO: 106 (protein)
chain: B1 chain with H139K, H141N
modifications: T22-NIDOmut3-H6
B3: T22-NIDOmut5-H6: T22 fusion protein, SEQ ID NO: 113 (protein)
chain: B1 chain with V45T, V121Q, H139K, H141N, F157E, C214S, V215T
modifications: T22-NIDOmut5-H6
B4: STMH6: Isolated hexahistidine-tagged stefin A (protein, UniProt P01040 1-98, looked up)
Cystatin-A: MIPGGLSEAKPATPEIQEIVDKVKPQLEEKTNETYGKLEAVQYKTQVVAGTNYYIKVRAGDNKYMHLKVFKSLPGQNEDLVLTGYQVDKNKDDELTGF
modifications: His6 tag
notes: Isolated hexahistidine-tagged stefin A

What was measured:
[1] = Volume size distribution of protein nanoparticles and nanoconjugates by Dynamic Light Scattering (DLS); type: physicochemical; conditions: for Nanoparticle size after assembly with ZnCl2 (DLS): assembled with ZnCl2 (0.04 mM and further concentrations up to 0.16 mM)
Method: Volume size distribution of all protein nanoparticles and nanoconjugates were determined by Dynamic Light Scattering (DLS) at 633 nm in a Zetasizer Nano ZS (Malvern Instruments) in triplicate.
Volume size distribution of protein nanoparticles was determined in a Zetasizer Nano ZS (Malvern Instruments) by Dynamic Light Scattering (DLS) at 633 nm in triplicates.
The integrity of the recombinant proteins was checked by mass spectrometry (MALDI-TOF), TGX (Tris-Glycine eXtended) Stain-Free acrylamide gels electrophoresis (BioRad) and Western Blot analysis using anti-His monoclonal antibody (1:1000; Santa Cruz, ref. 57598). Protein concentration was determined by Bradford (Biorad) assay with an Albumin (Roche) standard curve. GFP fluorescence emission (510 nm) was determined on purified proteins with a Cary Eclipse fluorescence spectrophotometer (Agilent Technologies) using an excitation wavelength of 450 nm. The volume and size distribution of nanoparticles were measured by dynamic light scattering (DLS) at 633 nm through a Zetasizer Nano ZS (Malvern Instruments) using quartz cuvettes.

[2] = Precipitation assay against increasing concentrations of ZnCl2; type: physicochemical; conditions: increasing ZnCl2 up to 0.16 mM
Method: T22-NIDOmut3-H6, T22-NIDOmut4 T215V-H6 and T22-NIDOmut5-H6 were selected to proceed with the characterization due to their best production yields (24, 26 and 28 mg/L, respectively). At this point, volume-size distribution of each candidate was studied via DLS (FIG. 16). All three candidates were equivalent to the original T22-NIDOmut2-H6 in size before and after assembly into nanoparticles with ZnCl2 (0.04 mM). […] Precisely because Zn is used to mediate this assembly, it was deemed appropriate to perform a precipitation assay against increasing concentrations of ZnCl2, up to 0.16 mM, (FIG. 17A) to test whether the new proteins were resistant to Zn-induced precipitation or not.

[3] = Stability study in buffers: soluble protein loss after dialysis (Bradford, Nanodrop)
Method: For the stability study in other buffers, purified protein fractions were dialyzed against chosen FDA-approved buffer and carbonate as control. Protein concentration was initially set at 2.0 mg/ml in carbonate buffer and dialysed into 0.5 ml of each new buffer. Samples were centrifuged for 15 min 15000 g to remove precipitate and the remaining soluble protein concentration was determined by Bradford's assay and Nanodrop.
The stability of resulting proteins was studied in three FDA-approved buffers, and carbonate as control buffer.

[4] = tested on: CXCR4+ HeLa cells; experiment: In vitro cell viability of FdU nanoconjugates (CellTiter-Glo Luminescent Cell Viability Assay); type: cell-based, Human; conditions: CXCR4+ HeLa cell line, 25 nM, 48 h
Method: HeLa cells (ATCC, CCL-2) were incubated in opaque 96-well plates in 90 μl of MEM alpha medium (Gibco) containing 10% of Fetal bovine serum (Gibco) in humidified atmosphere and 5% CO 2 at 37° C. Then, 10 μl of T22-NIDOmut3-H6-FdU and T22-NIDOmut2-H6-FdU nanoconjugates were added along with the control T22-NIDOmut3-H6 at 25 nM final concentration and incubated for additional 48 h. Cell viability was finally tested by CellTiter-Glo® Luminescent Cell Viability Assay (Promega) in a Victor 3 luminescent plate reader (Perkin Elmer). All samples were analyzed in triplicate and data expressed as mean % of viability (related to control cells)+/− standard error.

[5] = Intrinsic fluorescence (Centre of Spectral Mass) vs temperature, unfolding temperature determination; type: physicochemical; conditions: for Stability indexes Tm, Tonset and ΔT from CSM profiles: carbonate and FDA-approved buffers A9, B6, D1
Method: Fluorescence spectra were recorded in a Cary Eclipse spectrofluorimeter (Agilent Technologies, Mulgrave, Australia). A quartz cell with 10 mm path length and a thermostated holder was used. The excitation and emission slits were set at 5 nm. Excitation wavelength (λex) was set at 295 nm. Emission spectra were acquired within a range from 310 to 450 nm. The protein concentration was 0.2 mg/mL in carbonate buffer (166 mM NaCO3H, pH 8). In order to evaluate the conformation stability against heating we obtained the fluorescence spectra at each temperature at a 1° C./min scan rate and we calculated the Centre of Spectral Mass (CSM) for each spectrum. CSM is a weighted average of the fluorescence spectrum peak. Also it is related with the relative exposure of the Trp to the protein environment. The maximum red-shift in the CSM of the Trp, is compatible with a large solvent accessibility (Li, T. M.; et al., Biochemistry 1976, 15, 5571-80; Ruan, K and Weber, G, Biochemistry 1989, 28 (5), 2144-53 and Mohana-Borges, R. et al., Proceedings of the National Academy of Sciences of the United States of America 1999, 96 (14), 7888-93) and the protein unfolding.
The Centre of Spectral Mass (CSM) was calculated for each of the fluorescence emission according to Eq.1 (Lakowicz, J. R.; et al., 1991, Biophys Chem 39(1), 79-84), where Ii is the fluorescence intensity measure at the wavelength λi.
Midpoint unfolding temperature (Tm) was determined as the temperature value that correspond to the inflexion point of the CSM vs T° curve. We also determined the Tonset as the temperature where the CSM value begins to increase.

Row | Molecule | Nanoparticle size (volume size distribution, DLS) ([1]; self-assembled material in storage (carbonate) buffer) [nm] | Loss of the initial soluble protein by Zn-induced precipitation [2] | % Precipitation (Bradford) ([3]; buffer A9) | % Precipitation (Nanodrop) ([3]; buffer A9) | % Precipitation (Bradford) ([3]; buffer B6) | % Precipitation (Nanodrop) ([3]; buffer B6) | % Precipitation (Bradford) ([3]; buffer Carbonate) [%] | % Precipitation (Nanodrop) ([3]; buffer Carbonate) [%] | % Precipitation (Bradford) ([3]; buffer D1) [%] | % Precipitation (Nanodrop) ([3]; buffer D1) [%] | Nanoparticle size after assembly with ZnCl2 (DLS) [1] | Cytotoxicity [4] | Stability indexes Tm, Tonset and ΔT from CSM profiles [5] | Solubility after dialysis ([3]; buffer B6) | Solubility after dialysis ([3]; buffer A9) | Tm ([5]; *Tm value assuming that the maximal CSM values represent the entirely unfolding state of the protein) | Tonset, 1 ([5]; temperature where the CSM value begins to increase) [°C]
1 | B1 | ~12 | up to 66% | 12.7% | 29.0% | None | None | 17.6 | 23.9 | 84.1 | 86.5 | – | – | – | – | – | – | –
2 | B2 | – | – | 10.25% | 15.4% | 5.4% | None | 17.6 | 24.5 | 83.6 | 84.3 | 17 nm | did not cause any cytoxicity | shows the highest values | remained highly soluble | – | – | –
3 | B3 | – | – | None | None | 15.4% | 26.6% | 60.4 | 24.2 | 50.1 | 62.4 | nanoparticles of higher size | – | Second protein with better stability indexes | – | best suited | – | –
4 | B4 | – | – | – | – | – | – | – | – | – | – | – | – | – | – | – | ≅76° C.* | 70
